Ends that are not written are not given here.
Biological target: Sf9 cells expressing receptor A or receptor B
Assay: cell-based or functional assay

| EC50 of calcium fluorescence (FLIPR Calcium 6) in Sf9 cells expressing receptor A or receptor B | Binder |
| --- | --- |
| 1.4 nM | QPPLPRY-NH2 [QPPLPRY-NH2 (SEQ ID NO: 3)] |
| 12.7 nM | QPPVPRY-NH2 [QPPVPRY-NH2 (SEQ ID NO: 4)] |

Source: patent US20230309566A1
